Numbering of substitutions follows the chain as printed.
B1: 51K1, 72A (protein, listed as Rattus norvegicus)
chain: AFDGTWKVDRNENYEKFMEKMGINVVKRKLGAHDNLKLTITQEGNKFTVKKSSNFRNIDVVFELGVDFAYSAADGTELTGTWTMEGNKLVGKFKRVDNGKELIAVREISGNELIQTYTYEGVEAKRIFKKE
modifications: PEPTIDE (1)...(131) wild-type rat intestinal fatty acid binding protein
B2: 51T3, 72A (protein, listed as Rattus norvegicus)
chain: B1 chain with K51T
modifications: PEPTIDE (1)...(131) wild-type rat intestinal fatty acid binding protein
B3: 55L1, 72A (protein, listed as Rattus norvegicus)
chain: B1 chain with K51E, F55L
modifications: PEPTIDE (1)...(131) wild-type rat intestinal fatty acid binding protein
B4: 51L3, 72A (protein, listed as Rattus norvegicus)
chain: B1 chain with K51L
modifications: PEPTIDE (1)...(131) wild-type rat intestinal fatty acid binding protein
B5: 55P1, 72A (protein, listed as Rattus norvegicus)
chain: B1 chain with K51E, F55P
modifications: PEPTIDE (1)...(131) wild-type rat intestinal fatty acid binding protein
B6: 55R1, 72A (protein, listed as Rattus norvegicus)
chain: B1 chain with K51E, F55R
modifications: PEPTIDE (1)...(131) wild-type rat intestinal fatty acid binding protein
B7: 55K1, 72A (protein, listed as Rattus norvegicus)
chain: B1 chain with K51E, F55K
modifications: PEPTIDE (1)...(131) wild-type rat intestinal fatty acid binding protein
B8: 55G1, 72A (protein, listed as Rattus norvegicus)
chain: B1 chain with K51E, F55G
modifications: PEPTIDE (1)...(131) wild-type rat intestinal fatty acid binding protein
B9: 55D1, 72A (protein, listed as Rattus norvegicus)
chain: B1 chain with K51E, F55D
modifications: PEPTIDE (1)...(131) wild-type rat intestinal fatty acid binding protein
B10: 51Q1, 72A (protein, listed as Rattus norvegicus)
chain: B1 chain with K51Q
modifications: PEPTIDE (1)...(131) wild-type rat intestinal fatty acid binding protein
B11: 51R1, 72A (protein, listed as Rattus norvegicus)
chain: B1 chain with K51R
modifications: PEPTIDE (1)...(131) wild-type rat intestinal fatty acid binding protein
B12: 51Y1, 72A (protein, listed as Rattus norvegicus)
chain: B1 chain with K51Y
modifications: PEPTIDE (1)...(131) wild-type rat intestinal fatty acid binding protein
B13: 51N1, 72A (protein, listed as Rattus norvegicus)
chain: B1 chain with K51N
modifications: PEPTIDE (1)...(131) wild-type rat intestinal fatty acid binding protein
B14: 55A1, 72A (protein, listed as Rattus norvegicus)
chain: B1 chain with K51E, F55A
modifications: PEPTIDE (1)...(131) wild-type rat intestinal fatty acid binding protein
B15: 51S1, 72A (protein, listed as Rattus norvegicus)
chain: B1 chain with K51S
modifications: PEPTIDE (1)...(131) wild-type rat intestinal fatty acid binding protein
B16: 55Q1, 72A (protein, listed as Rattus norvegicus)
chain: B1 chain with K51E, F55Q
modifications: PEPTIDE (1)...(131) wild-type rat intestinal fatty acid binding protein
B17: 55N1, 72A (protein, listed as Rattus norvegicus)
chain: B1 chain with K51E, F55N
modifications: PEPTIDE (1)...(131) wild-type rat intestinal fatty acid binding protein
B18: 55M1, 72A (protein, listed as Rattus norvegicus)
chain: B1 chain with K51E, F55M
modifications: PEPTIDE (1)...(131) wild-type rat intestinal fatty acid binding protein
B19: 55H2, 72A (protein, listed as Rattus norvegicus)
chain: B1 chain with K51E, F55H
modifications: PEPTIDE (1)...(131) wild-type rat intestinal fatty acid binding protein
B20: 55E, 72A (protein, listed as Rattus norvegicus)
chain: B1 chain with K51E, F55E
modifications: PEPTIDE (1)...(131) wild-type rat intestinal fatty acid binding protein
B21: 51P3, 72A (protein, listed as Rattus norvegicus)
chain: B1 chain with K51P
modifications: PEPTIDE (1)...(131) wild-type rat intestinal fatty acid binding protein
B22: 55I1, 72A (protein, listed as Rattus norvegicus)
chain: B1 chain with K51E, F55I
modifications: PEPTIDE (1)...(131) wild-type rat intestinal fatty acid binding protein
B23: 51V3, 72A (protein, listed as Rattus norvegicus)
chain: B1 chain with K51V
modifications: PEPTIDE (1)...(131) wild-type rat intestinal fatty acid binding protein
B24: 51W2, 72A (protein, listed as Rattus norvegicus)
chain: B1 chain with K51W
modifications: PEPTIDE (1)...(131) wild-type rat intestinal fatty acid binding protein

Test: Probe fluorescence ratio response to linolenic acid relative to ADIFAB2
Format: binding
Conditions: response relative to ADIFAB2
In short: (§1)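 Each fatty acid's response was expressed relative to ADIFAB2, the rI-FABP-L72A probe, as ΔR/ΔRreference. ΔR is the change in the background-corrected two-wavelength intensity ratio R=Fλ1/Fλ2 from its analyte-free baseline R0. Emission was read near about 420-480 nm for unbound and about 495-580 nm for FFA-bound probe.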

First: B1
Second: B2
The “DR/DR LNA” value of the first is lower: 1.02 for the first, 1.60 for the second.

Compared with B3, B4 is higher in “DR/DR LNA” value: 0.72 for the first, 1.66 for the second.

Compared with B5, B6 is lower in “DR/DR LNA” value: 0.96 for the first, 0.37 for the second.

First: B7
Second: B8
The “DR/DR LNA” value of the first is higher: 0.35 for the first, 0.23 for the second.

Compared with B9, B10 is higher in “DR/DR LNA” value: 0.12 for the first, 1.65 for the second.

Going from B11 to B12, the “DR/DR LNA” value falls from 1.56 to 1.44.

Going from B13 to B14, the “DR/DR LNA” value falls from 1.39 to 0.36.

First: B15
Second: B16
The “DR/DR LNA” value of the first is higher: 1.66 for the first, 0.49 for the second.

First: B17
Second: B18
The “DR/DR LNA” value of the first is lower: 0.30 for the first, 1.42 for the second.

First: B19
Second: B20
The “DR/DR LNA” value of the first is higher: 0.32 for the first, 0.21 for the second.

Going from B21 to B22, the “DR/DR LNA” value falls from 1.48 to 0.89.

Going from B23 to B24, the “DR/DR LNA” value rises from 1.53 to 1.70.

Test: Probe fluorescence ratio response to linoleic acid relative to ADIFAB2
Format: binding
Conditions: response relative to ADIFAB2
In short: as §1

Compared with B1, B2 is higher in “DR/DR LA” value: −0.01 for the first, 1.65 for the second.

First: B3
Second: B4
The “DR/DR LA” value of the first is lower: 0.71 for the first, 1.65 for the second.

First: B5
Second: B6
The “DR/DR LA” value of the first is higher: 1.05 for the first, 0.41 for the second.

First: B7
Second: B8
The “DR/DR LA” value of the first is higher: 0.34 for the first, 0.22 for the second.

First: B9
Second: B10
The “DR/DR LA” value of the first is lower: 0.12 for the first, 1.63 for the second.

First: B11
Second: B12
The “DR/DR LA” value of the first is higher: 1.56 for the first, 1.50 for the second.

First: B13
Second: B14
The “DR/DR LA” value of the first is higher: 1.46 for the first, 0.34 for the second.

Going from B15 to B16, the “DR/DR LA” value falls from 1.78 to 0.47.

First: B17
Second: B18
The “DR/DR LA” value of the first is lower: 0.29 for the first, 0.97 for the second.

Compared with B19, B20 is lower in “DR/DR LA” value: 0.38 for the first, 0.21 for the second.

Going from B21 to B22, the “DR/DR LA” value falls from 1.42 to 0.83.

First: B23
Second: B24
The “DR/DR LA” value of the first is lower: 1.64 for the first, 1.77 for the second.

Test: Probe fluorescence ratio response to palmitic acid relative to ADIFAB2
Format: binding
Conditions: response relative to ADIFAB2
In short: as §1

Compared with B1, B2 is higher in “DR/DR PA” value: 0.56 for the first, 0.71 for the second.

Compared with B3, B4 is higher in “DR/DR PA” value: 0.63 for the first, 0.76 for the second.

Going from B5 to B6, the “DR/DR PA” value falls from 0.54 to 0.30.

First: B7
Second: B8
The “DR/DR PA” value of the first is higher: 0.27 for the first, 0.18 for the second.

First: B9
Second: B10
The “DR/DR PA” value of the first is lower: 0.10 for the first, 0.73 for the second.

First: B11
Second: B12
The “DR/DR PA” value of the first is higher: 0.73 for the first, 0.72 for the second.

Compared with B13, B14 is lower in “DR/DR PA” value: 0.73 for the first, 0.28 for the second.

Compared with B15, B16 is lower in “DR/DR PA” value: 0.80 for the first, 0.43 for the second.

Compared with B17, B18 is higher in “DR/DR PA” value: 0.22 for the first, 0.84 for the second.

Compared with B19, B20 is lower in “DR/DR PA” value: 0.26 for the first, 0.17 for the second.

First: B21
Second: B22
The “DR/DR PA” value of the first is lower: 0.72 for the first, 0.77 for the second.

Compared with B23, B24 is higher in “DR/DR PA” value: 0.73 for the first, 0.80 for the second.

Test: Probe fluorescence ratio response to arachidonic acid relative to ADIFAB2
Format: binding
Conditions: Arachidonic acid; response relative to ADIFAB2
In short: as §1

Going from B1 to B2, the “DR/DR AA” value rises from 1.00 to 1.60.

Compared with B3, B4 is higher in “DR/DR AA” value: 0.86 for the first, 1.64 for the second.

First: B5
Second: B6
The “DR/DR AA” value of the first is higher: 1.01 for the first, 0.40 for the second.

Compared with B7, B8 is lower in “DR/DR AA” value: 0.32 for the first, 0.19 for the second.

Compared with B9, B10 is higher in “DR/DR AA” value: 0.11 for the first, 1.56 for the second.

Going from B11 to B12, the “DR/DR AA” value falls from 1.50 to 1.38.

First: B13
Second: B14
The “DR/DR AA” value of the first is higher: 1.38 for the first, 0.33 for the second.

First: B15
Second: B16
The “DR/DR AA” value of the first is higher: 1.64 for the first, 0.60 for the second.

Compared with B17, B18 is higher in “DR/DR AA” value: 0.34 for the first, 1.40 for the second.

Compared with B19, B20 is lower in “DR/DR AA” value: 0.36 for the first, 0.21 for the second.

First: B21
Second: B22
The “DR/DR AA” value of the first is higher: 1.42 for the first, 1.08 for the second.

Compared with B23, B24 is higher in “DR/DR AA” value: 1.52 for the first, 1.69 for the second.

Test: Probe fluorescence ratio response to oleic acid relative to ADIFAB2
Format: binding
Conditions: response relative to ADIFAB2
In short: as §1

Going from B1 to B2, the “DR/DR OA” value rises from 1.01 to 1.44.

First: B3
Second: B4
The “DR/DR OA” value of the first is lower: 0.82 for the first, 1.45 for the second.

Compared with B5, B6 is lower in “DR/DR OA” value: 0.93 for the first, 0.39 for the second.

First: B7
Second: B8
The “DR/DR OA” value of the first is higher: 0.30 for the first, 0.19 for the second.

Compared with B9, B10 is higher in “DR/DR OA” value: 0.10 for the first, 1.43 for the second.

Going from B11 to B12, the “DR/DR OA” value rises from 1.35 to 1.38.

Going from B13 to B14, the “DR/DR OA” value falls from 1.26 to 0.30.

First: B15
Second: B16
The “DR/DR OA” value of the first is higher: 1.61 for the first, 0.54 for the second.

Going from B17 to B18, the “DR/DR OA” value rises from 0.27 to 1.41.

First: B19
Second: B20
The “DR/DR OA” value of the first is higher: 0.27 for the first, 0.21 for the second.

Going from B21 to B22, the “DR/DR OA” value falls from 1.21 to 0.90.

Going from B23 to B24, the “DR/DR OA” value rises from 1.43 to 1.55.
